{
  "source": "paper PMC3470943",
  "about": "“Identification of BACE2 as an avid ß-amyloid-degrading protease” (Molecular Neurodegeneration, 2012)",
  "key": {"[1]": {"system": "Aß (fluorescent substrate FAβB)", "test": "Fluorescence polarization-based Aß degradation assay", "assay_type": "biochemical", "details": "37°C", "description": "The kinetics of Aβ40 and Aβ42 degradation by BACE2 were determined using freshly prepared, monomeric Aβ peptides separated from aggregated species by size-exclusion chromatography and characterized as described. Aβ peptides were diluted in neutral Dilution Buffer (20 mM Tris, pH 8.0 supplemented with 0.1% BSA) and reactions were initiated by transfer into 20 times more volume of Assay Buffer supplemented with purified recombinant BACE2 (R&D Systems, nominal concentration 1 or 5 nM) or, as a control for non-specific loss of Aβ, the latter buffer lacking BACE2. Where required, reactions were terminated by supplementation with protease inhibitor cocktail and adjustment to neutral pH. For ELISA-based experiments, Aβ42 and Aβ40 were quantified using the sandwich ELISAs described above. […] For determination of the pH dependence of Aβ degradation, experiments were carried same as described above, using Assay Buffer at different pH values (3.0, 3.5, 4.0, 4.5, 5.0, 5.5). The reactions were stopped at 10 min and the remaining 200nM of Aβ was determined using a well-characterized fluorescence polarization-based activity Aß degradation assay, as described. […] The degree of Aβ hydrolysis was immediately determined using a polarization-based Aß degradation assay. […]"}, "[2]": {"system": "net Aß40 and Aß42 levels of CHO cells expressing APP-AP", "test": "Confirmation: co-transfection of BACE2 or BACE1 cDNA with APP-AP, Aß40 and Aß42 ELISA", "assay_type": "cell-based", "details": "CHO cells co-transfected with APP-AP, 4 replicates, normalized to vector-only controls", "description": "Figure 1 Overview and outcome of functional screening for novel Aß-lowering proteases. A, Cartoon illustrating the overall design of the screen. Briefly, an arrayed collection of 352 protease-encoding cDNAs was cotransfected into CHO cells together with an APP-AP fusion construct. Following a medium change and overnight incubation, Aß40 levels, AP activity, and cytotoxicity (via MTT assay) were analyized in the resulting conditioned media. B, Results of the screen, expressed as [Aß40]/AP ratios normalized to intraplate controls. Data are mean of 4 replicates. Note that the largest decrease in Aß levels by far was acheived by BACE2. C, Confirmation of the results of the screen. Following scale-up and sequence verification, cDNAs encoding BACE2 and its homolog, BACE1, were cotransfected together with APP-AP into CHO cells. […]\nAβ levels were quantified using a sandwich ELISA system based on antibody pairs 33.1.1/13.1.1 for Aβ40 and 2.1.3/4 G8 for Aβ42 as described previously. Conditioned media were supplemented with Complete^TM Protease Inhibitor Cocktail (Roche) just after collection and analyzed immediately. For experiments quantifying intracellular Aß, cells were plated in 96-well plates (2 x 10^4 cells per well) and transfected with BACE2-encoding cDNA or empty vector, washed, then incubated with 400 nM synthetic Aß for 6 h. […]"}, "[3]": {"system": "Aß40 levels produced by CHO cells co-transfected with human APP-AP", "test": "Functional cDNA screen for Aß-lowering proteases, co-transfection with APP-AP", "assay_type": "cell-based, CHO cells (rodent cell line)", "details": "protease cDNA 100 ng/well co-transfected with APP-AP 60 ng/well; 24 h conditioned medium; normalized to intra-plate controls; quadruplicate", "description": "A library of 352 full-length, sequence verified, human cDNAs encoding diverse members of all protease classes was purchase from a commercial source (OriGene Technologies, Inc.) in 96-well format (100 ng/well). For negative and positive controls, a subset of blank wells on each plate were supplemented with empty vector or a construct expressing a well-established AßDP, human ECE1b, respectively (100 ng/well). As a source of human Aß and also as a transfection control, each well was cotransfected with a hybrid construct, APP-AP (60 ng/well), comprised of a vector expressing wild-type human APP fused at its N-terminus with alkaline phosphatase (AP). Additional blank wells were left untreated for cell-free background controls. […]\nFollowing heat treatment to inactivate endogenous phosphatases (65°C for 15 min) present in the media, conditioned media (30 μL/well) was added to 96-well plates containing AP substrate, 4-nitrophenylphosphate (170 μL/well, 2 mg/mL), dissolved in AP buffer (1 M diethanolamine, 0.5 mM MgCl2, 10 mM L-homoarginine, pH 9.8). Plates were incubated for 30 min and AP activity was determined from absorbance (OD405) using a SpectraMax® M5^e multilabel plate reader (Molecular Devices).\nAβ levels were quantified using a sandwich ELISA system based on antibody pairs 33.1.1/13.1.1 for Aβ40 and 2.1.3/4 G8 for Aβ42 as described previously. […]"}, "[4]": {"system": "pre-formed fibrils of Aß42", "test": "Thioflavin T fluorescence of pre-formed Aß42 fibrils incubated with BACE2", "assay_type": "biochemical", "details": "BACE2 10 nM, 37°C, up to 3 d / 5 d (legend Figure 2D), 3 replicates", "description": "Figure 2 BACE2 degrades Aß in vitro. A, Percent Aß remaining following incubation with different concentrations of recombinant BACE2 for various lengths of time. Data are mean ± SEM of 4 replicates, normalized to protease-free controls. B, Comparison the relative Aß-degrading ability of recombinant BACE2 vs. BACE1. Note that 24 h incubation with BACE1 was required to achieve approximately the same extent of degradation as effected by BACE2 in 10 min. Data are mean ± SEM of 3 replicates, normalized to protease-free controls. C, BACE2 activity is pH dependent. Percent Aß degradation catalyzed by equivalent amounts of BACE2 at different pH values. Data are mean ± SEM of 4 replicates. […] Data are mean ± SEM of 3 replicates.\nIndividual AßDPs can be categorized in terms of their ability or inability to degrade fibrillar forms of Aß. Many well-established AßDPs, such as IDE and NEP, avidly degrade monomeric Aß but cannot degrade fibrillar forms and are therefore categorized as pure peptidases. Others, such as plasmin, degrade Aß fibrils and thus can also be categorized as fibrilases."}},
  "data": [
    {"molecule": "BACE1: ß-site APP-cleaving enzyme-1, homolog of BACE2; recombinant enzyme or transfected cDNA (protein, UniProt P56817 46-501, looked up) Beta-secretase 1: ETDEEPEEPGRRGSFVEMVDNLRGKSGQGYYVEMTVGSPPQTLNILVDTGSSNFAVGAAPHPFLHRYYQRQLSSTYRDLRKGVYVPYTQGKWEGELGTDLVSIPHGPNVTVRANIAAITESDKFFINGSNWEGILGLAYAEIARPDDSLEPFFDSLVKQTHVPNLFSLQLCGAGFPLNQSEVLASVGGSMIIGGIDHSLYTGSLWYTPIRREWYYEVIIVRVEINGQDLKMDCKEYNYDKSIVDSGTTNLRLPKKVFEAAVKSIKAASSTEKFPDGFWLGEQLVCWQAGTTPWNIFPVISLYLMGEVTNQSFRITILPQQYLRPVEDVATSQDDCYKFAISQSSTGTVMGAVIMEGFYVVFDRARKRIGFAVSACHVHDEFRTAAVEGPFVTLDMEDCGYNIPQTDESTLMTIAYVMAAICALFMLPLCLMVCQWRCLRCLRQQHDDFADDISLLK", "values": [
      {"measurement": "efficiency of Aß degradation, fold lower than that of BACE2", "setting": "[1]; BACE1 24 h vs BACE2 10 min for a similar extent of degradation, Assay Buffer pH 4.0", "value": "~ 150 fold"},
      {"measurement": "effect of overexpression on net Aß40 and Aß42 levels", "setting": "[2]", "value": "no effect"}
    ]},
    {"molecule": "BACE2: ß-site APP-cleaving enzyme-2, aspartyl protease; recombinant enzyme (R&D Systems) or transfected human cDNA (protein, UniProt Q9Y5Z0 63-518, looked up) Beta-secretase 2: ALEPALASPAGAANFLAMVDNLQGDSGRGYYLEMLIGTPPQKLQILVDTGSSNFAVAGTPHSYIDTYFDTERSSTYRSKGFDVTVKYTQGSWTGFVGEDLVTIPKGFNTSFLVNIATIFESENFFLPGIKWNGILGLAYATLAKPSSSLETFFDSLVTQANIPNVFSMQMCGAGLPVAGSGTNGGSLVLGGIEPSLYKGDIWYTPIKEEWYYQIEILKLEIGGQSLNLDCREYNADKAIVDSGTTLLRLPQKVFDAVVEAVARASLIPEFSDGFWTGSQLACWTNSETPWSYFPKISIYLRDENSSRSFRITILPQLYIQPMMGAGLNYECYRFGISPSTNALVIGATVMEGFYVIFDRAQKRVGFAASPCAEIAGAAVSEISGPFSTEDVASNCVPAQSLSEPILWIVSYALMSVCGAILLVLIVLLLLPFRCQRRPRDPEVVNDESSLVRHRWK", "values": [
      {"measurement": "pH of maximal Aß40 hydrolysis", "setting": "[1]; Assay Buffer at pH 3.0, 3.5, 4.0, 4.5, 5.0, 5.5, 200 nM Aβ, stopped at 10 min, 4 replicates", "value": 3.5},
      {"measurement": "decrease in normalized Aß levels ([Aß40]/AP ratio)", "setting": "[3]", "value": "97 ± 1.2", "unit": "%"},
      {"measurement": "effect of overexpression on net Aß40 and Aß42 levels", "setting": "[2]", "value": "decreased the levels of both Aβ40 and Aβ42"},
      {"measurement": "effect on aggregation of pre-formed Aß42 fibrils", "setting": "[4]", "value": "No significant reduction in aggregation"}
    ]}
  ]
}
